Data published in patent publication US20030165887A1 (BURNHAM INSTITUTE, published 2003).

What was measured:
Experiment in all cases: co-immunoprecipitation, transfected HEK293T cells, SDS-PAGE/immunoblot
Cardiak (RIP2) = target: T1, Cardiak (RIP2) (UniProt O43353 1-540, limits assumed)
T1 construct: also called RICK
Description: (§1) The TUCAN polypeptides were expressed by transient transfection in HEK293T cells together with epitope-tagged pro-caspase-9 or other proteins. […] Cell lysates were prepared from transfected cells and immunoprecipitations were performed using anti-Flag or anti-Myc antibodies, followed by SDS-PAGE/immunoblot analysis.

CARD9 = target: T2, CARD9 (UniProt Q9H257 1-536, limits assumed)
T2 sequence (looked up): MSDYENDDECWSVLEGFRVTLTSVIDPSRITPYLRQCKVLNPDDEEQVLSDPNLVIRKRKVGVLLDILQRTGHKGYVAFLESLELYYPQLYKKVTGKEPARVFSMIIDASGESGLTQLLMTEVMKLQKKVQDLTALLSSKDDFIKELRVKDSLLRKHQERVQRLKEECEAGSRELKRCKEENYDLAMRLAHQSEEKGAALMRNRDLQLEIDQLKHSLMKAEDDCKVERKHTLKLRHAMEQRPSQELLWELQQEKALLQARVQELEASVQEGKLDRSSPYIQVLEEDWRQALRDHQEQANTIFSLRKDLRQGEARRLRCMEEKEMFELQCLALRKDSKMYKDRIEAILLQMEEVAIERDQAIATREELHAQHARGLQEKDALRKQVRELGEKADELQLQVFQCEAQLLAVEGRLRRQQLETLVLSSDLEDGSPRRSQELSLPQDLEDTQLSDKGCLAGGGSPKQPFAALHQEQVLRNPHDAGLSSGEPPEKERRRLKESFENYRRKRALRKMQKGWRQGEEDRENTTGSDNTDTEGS
Description: as §1

pro-caspase-8 = pro-caspase-8 (UniProt Q14790 1-479, limits assumed)
Sequence of pro-caspase-8 (Q14790 whole entry): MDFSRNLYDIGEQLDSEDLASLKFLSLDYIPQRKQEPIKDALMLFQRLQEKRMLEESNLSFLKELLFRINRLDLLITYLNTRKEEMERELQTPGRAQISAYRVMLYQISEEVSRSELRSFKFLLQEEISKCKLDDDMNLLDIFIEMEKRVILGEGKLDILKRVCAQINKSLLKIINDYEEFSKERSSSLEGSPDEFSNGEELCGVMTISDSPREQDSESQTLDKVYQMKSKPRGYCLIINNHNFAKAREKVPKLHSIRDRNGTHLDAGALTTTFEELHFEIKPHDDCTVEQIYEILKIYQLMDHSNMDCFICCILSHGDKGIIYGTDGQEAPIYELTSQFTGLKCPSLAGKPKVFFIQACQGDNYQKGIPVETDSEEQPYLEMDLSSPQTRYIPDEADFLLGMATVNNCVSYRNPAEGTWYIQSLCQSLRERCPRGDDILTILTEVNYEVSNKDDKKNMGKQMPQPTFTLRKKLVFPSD
Description: as §1

pro-Caspase-2 = target: T3, pro-Caspase-2 (UniProt P42575 1-452, limits assumed)
T3 sequence (looked up): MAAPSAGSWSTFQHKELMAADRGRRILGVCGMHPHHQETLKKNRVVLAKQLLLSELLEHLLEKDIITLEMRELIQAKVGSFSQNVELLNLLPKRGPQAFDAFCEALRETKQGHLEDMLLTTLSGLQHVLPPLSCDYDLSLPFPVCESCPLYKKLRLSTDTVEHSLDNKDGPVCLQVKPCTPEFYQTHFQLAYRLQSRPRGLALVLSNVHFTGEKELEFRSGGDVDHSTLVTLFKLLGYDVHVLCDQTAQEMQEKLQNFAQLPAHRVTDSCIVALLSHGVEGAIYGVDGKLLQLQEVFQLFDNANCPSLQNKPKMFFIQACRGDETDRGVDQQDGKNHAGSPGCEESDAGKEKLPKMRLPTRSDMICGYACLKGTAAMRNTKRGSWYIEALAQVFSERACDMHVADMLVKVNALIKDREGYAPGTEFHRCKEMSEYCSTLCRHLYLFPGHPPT
Description: as §1

Nod1 (CARD4) = target: T4, Nod1 (CARD4) (UniProt Q9Y239 1-953, limits assumed)
T4 construct: also called Nodl
T4 sequence (looked up): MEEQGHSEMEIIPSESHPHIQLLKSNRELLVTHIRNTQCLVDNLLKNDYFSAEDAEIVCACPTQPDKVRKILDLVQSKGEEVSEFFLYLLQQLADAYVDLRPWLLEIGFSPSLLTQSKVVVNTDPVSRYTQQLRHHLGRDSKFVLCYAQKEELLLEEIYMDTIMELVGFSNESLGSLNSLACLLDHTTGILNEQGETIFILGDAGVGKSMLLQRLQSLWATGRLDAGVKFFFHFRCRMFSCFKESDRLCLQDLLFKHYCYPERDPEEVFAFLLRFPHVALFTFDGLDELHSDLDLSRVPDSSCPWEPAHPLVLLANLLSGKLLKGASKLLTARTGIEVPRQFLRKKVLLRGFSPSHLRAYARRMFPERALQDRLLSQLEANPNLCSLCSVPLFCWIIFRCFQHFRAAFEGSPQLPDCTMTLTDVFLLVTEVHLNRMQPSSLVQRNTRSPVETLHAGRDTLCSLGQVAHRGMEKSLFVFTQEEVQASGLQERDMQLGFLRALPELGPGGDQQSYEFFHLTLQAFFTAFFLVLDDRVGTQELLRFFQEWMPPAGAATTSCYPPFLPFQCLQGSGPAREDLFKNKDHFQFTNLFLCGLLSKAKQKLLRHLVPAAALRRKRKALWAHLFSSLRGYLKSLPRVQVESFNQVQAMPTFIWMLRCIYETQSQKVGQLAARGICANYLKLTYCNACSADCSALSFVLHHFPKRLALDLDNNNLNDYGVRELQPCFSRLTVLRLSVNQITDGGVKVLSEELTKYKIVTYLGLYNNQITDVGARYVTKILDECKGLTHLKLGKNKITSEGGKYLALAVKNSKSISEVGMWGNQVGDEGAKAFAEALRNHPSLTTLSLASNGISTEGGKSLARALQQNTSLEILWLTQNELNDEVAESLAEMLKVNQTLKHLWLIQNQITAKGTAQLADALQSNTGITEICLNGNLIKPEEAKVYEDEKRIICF
Description: as §1

Measured: binding result

T1 sequence (O43353 whole entry): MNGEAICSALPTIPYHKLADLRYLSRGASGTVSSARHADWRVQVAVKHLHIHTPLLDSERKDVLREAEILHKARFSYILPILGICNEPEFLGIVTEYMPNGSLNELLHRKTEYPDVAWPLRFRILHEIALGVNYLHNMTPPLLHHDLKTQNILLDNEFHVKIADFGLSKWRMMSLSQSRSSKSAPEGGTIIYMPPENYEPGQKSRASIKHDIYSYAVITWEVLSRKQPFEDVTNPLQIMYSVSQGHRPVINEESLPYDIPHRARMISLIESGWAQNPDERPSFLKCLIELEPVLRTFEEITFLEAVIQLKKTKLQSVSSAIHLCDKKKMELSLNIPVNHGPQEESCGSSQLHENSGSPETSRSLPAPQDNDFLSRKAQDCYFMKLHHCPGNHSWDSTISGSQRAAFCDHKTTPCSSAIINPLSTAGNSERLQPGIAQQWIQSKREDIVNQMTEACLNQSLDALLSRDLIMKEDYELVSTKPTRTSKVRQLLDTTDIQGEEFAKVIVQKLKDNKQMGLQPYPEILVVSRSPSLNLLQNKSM

B1: TUCAN (Tumor Up-regulated CARD-containing Antagonist of Caspase Nine), full-length (other)
chain: MMRQRQSHYCSVLFLSVNYLGGTFPGDICSEENQIVSSYASKVCFEIEEDYKNRQFLGPEGNVDVELIDKSTNRYSVWFPTAGWYLWSATGLGFLVRDEVTVTIAFGSWSQHLALDLQHHEQWLVGGPLFDVTAEPEEAVAEIHLPHFISLQGEVDVSWFLVAHFKNEGMVLEHPARVEPFYAVLESPSFSLMGILLRIASGTRLSIPITSNTLIYYHPHPEDIKFHLYLVPSDALLTKAIDDEEDRFHGVRLQTSPPMEPLNFGSSYIVSNSANLKVMPKELKLSYRSPGEIQHFSKFYAGQMKEPIQLEITEKRHGTLVWDTEVKPVDLQLVAASAPPPFSGAAFVKENHRQLQARMGDLKGVLDDLQDNEVLTENEKELVEQEKTRQSKNEALLSMVEKKGDLALDVLFRSISERDPYLVSYLRQQNL
notes: Full-length TUCAN expressed by transient transfection in HEK293T cells; also called full-length TUCAN; CARD-X
no binding: all assays above
